Measurements as given in patent publication US20050164311A1, “Biological assay detection method” (priority 2001, published 2005).
Blank lines part the entries; values can stand above or below the compound they belong to.

Key:
[1] = target: T1, Protein phosphatase 2A1 (PP2A1) (Homo sapiens, UniProt P67775); experiment: Protein phosphatase assay, TR-FRET detection with [Eu3+]GST-PDZ, inhibition experiments; format: biochemical; details: PP2A1 15 pM; substrate biotin-HRRAARYLEpSAV-OH; quenched after 60 min; condition Dilution
T1 construct: purchased Biomol Research Laboratories (Plymouth Meeting, Pa.)
T1 sequence (P63151 whole entry): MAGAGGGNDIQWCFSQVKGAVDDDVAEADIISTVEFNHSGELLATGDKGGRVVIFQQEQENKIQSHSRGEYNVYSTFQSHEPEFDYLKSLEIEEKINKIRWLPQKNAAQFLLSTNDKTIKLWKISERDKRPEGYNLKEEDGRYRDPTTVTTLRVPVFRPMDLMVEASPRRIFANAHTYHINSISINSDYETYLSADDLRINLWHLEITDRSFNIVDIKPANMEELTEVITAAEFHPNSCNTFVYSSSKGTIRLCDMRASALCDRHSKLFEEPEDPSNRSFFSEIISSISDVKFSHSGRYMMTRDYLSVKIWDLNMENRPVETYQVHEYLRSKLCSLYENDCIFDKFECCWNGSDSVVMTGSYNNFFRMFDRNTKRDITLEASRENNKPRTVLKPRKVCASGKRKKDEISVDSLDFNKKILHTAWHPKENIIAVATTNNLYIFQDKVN
T1 sequence (P30153 whole entry, further chain): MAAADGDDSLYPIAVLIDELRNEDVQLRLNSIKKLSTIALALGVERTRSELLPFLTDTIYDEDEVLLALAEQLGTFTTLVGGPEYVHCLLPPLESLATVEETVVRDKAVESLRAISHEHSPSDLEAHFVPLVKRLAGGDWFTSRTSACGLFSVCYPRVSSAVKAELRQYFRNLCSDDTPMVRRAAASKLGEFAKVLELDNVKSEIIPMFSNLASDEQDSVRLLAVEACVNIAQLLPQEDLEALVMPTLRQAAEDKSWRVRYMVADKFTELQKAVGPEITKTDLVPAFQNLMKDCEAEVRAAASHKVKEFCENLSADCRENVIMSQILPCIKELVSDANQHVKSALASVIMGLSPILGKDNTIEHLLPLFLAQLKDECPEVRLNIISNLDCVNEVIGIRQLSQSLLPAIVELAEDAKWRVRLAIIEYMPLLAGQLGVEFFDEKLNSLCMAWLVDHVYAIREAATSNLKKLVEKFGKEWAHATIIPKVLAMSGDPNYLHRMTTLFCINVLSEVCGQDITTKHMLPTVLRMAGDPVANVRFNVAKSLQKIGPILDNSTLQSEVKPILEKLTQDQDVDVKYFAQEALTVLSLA
T1 sequence (P67775 whole entry): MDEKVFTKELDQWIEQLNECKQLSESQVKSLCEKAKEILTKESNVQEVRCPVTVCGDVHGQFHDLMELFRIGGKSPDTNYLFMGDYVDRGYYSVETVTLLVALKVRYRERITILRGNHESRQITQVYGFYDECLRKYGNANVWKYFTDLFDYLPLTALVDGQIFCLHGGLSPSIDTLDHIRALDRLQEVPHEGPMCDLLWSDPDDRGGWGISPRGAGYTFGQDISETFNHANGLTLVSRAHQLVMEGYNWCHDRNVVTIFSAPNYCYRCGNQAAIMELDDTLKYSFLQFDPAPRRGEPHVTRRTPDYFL
Protocol: (§1) Assays were carried out in 96-well black, low binding, Microfluor2 plates (Dynex, Va.). Assay plates were read using a Victor^2V microplate analyzer (Perkin Elmer Wallac (Turku, Finland)), with 337 nm excitation. Fluorescence emission was measured at 665 nm for FRET signal and 615 nm for Eu^3+ chelate, and results are expressed as the ratio of fluorescence intensities, FI665nm/FI615 nm.
For the initial time courses, 20 μl of biotin-HRRAARYLEpSAV-OH (SEQ. ID No. 4) (100 nM in phosphatase buffer: 50 mM Tris, pH 7.4, 10% glycerol, 14 mM β-mercaptoethanol, 0.2 mg/ml BSA) was mixed with 20 μl of PP2A1 (2× in phosphatase buffer), and the reaction solution was incubated at 32° C. At different time points, 40 μl aliquots were quenched with […] of a 5×TR-FRET mixture of Cantharidic Acid (5 μM, [Eu^3+]GST-PDZ (1.6 nM), and [665]SA (15.6 nM) in PBSTB, for 60 min, at 25° C., and read.
For the inhibition experiments, 2 μl of inhibitor were added to 20 μl PP2A1 (30 pM in phosphatase buffer), and the reaction was initiated by addition of 20 μl of peptide substrate (100 nM in phosphatase buffer). The reaction was quenched after 60 min with the addition of 10 μl of 5×TR-FRET quenching/detection mixture, as described above. Background was measured from a reaction mixture with substrate, detection mixture and no enzyme.

[2] = target: T2, Porcine carboxypeptidase B (CPB) (Sus scrofa, UniProt P09955); experiment: Carboxypeptidase B assay, TR-FRET detection with [Eu3+]GST-PDZ, inhibition experiments; format: biochemical; details: CPB 100 pM; substrate biotin-HRRSARYLESSVR-OH; quenched after 30 min; condition Dilution
T2 construct: purchased Sigma (St. Louis, Mo.)
T2 sequence (P09955 111-416): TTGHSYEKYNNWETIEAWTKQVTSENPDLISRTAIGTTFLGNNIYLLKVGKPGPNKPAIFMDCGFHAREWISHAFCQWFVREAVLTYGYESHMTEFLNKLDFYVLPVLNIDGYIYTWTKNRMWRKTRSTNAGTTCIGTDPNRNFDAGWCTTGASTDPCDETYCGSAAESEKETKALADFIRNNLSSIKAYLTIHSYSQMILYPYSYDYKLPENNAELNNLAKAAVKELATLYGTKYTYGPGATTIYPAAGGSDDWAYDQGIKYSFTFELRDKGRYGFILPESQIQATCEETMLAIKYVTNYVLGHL
Protocol: as §1
For the initial time courses, 20 μl of biotin-HRRSARYLESSVR-OH (SEQ. ID No. 7), (100 nM in 10 mM phosphate, 150 mM NaCl, 0.05% tween-20, 0.1% BSA (PBSTB)) was mixed with 20 μl of CPB (2× in PBSTB), and the reaction quenched with 10 μl of a 5×TR-FET mixture of PCI (1 μM, [Eu^3+]GST-PDZ (6.25 nM), and [X1665]SA (62.5 nM) in PBSTB, for 60 min, at 25° C., and read.
For the inhibition experiments, 2 Ill of inhibitor was added to 20 μl CPB (200 pM in PBSTB), and the reaction was initiated by addition of 20 μl peptide substrate (100 nM in PBSTB). The reaction was quenched after 30 min with the addition of 10 μl of 5×TR-FRET quenching/detection mixture, as described above. Background was measured from a reaction mixture with substrate, detection mixture and no enzyme.

Biotin-…-OH [3] = experiment: TR-FRET, 4 nM product peptide plus 36 nM masked substrate biotin-…-NH2 (Asp-N pair); data not shown
Biotin-…-OH [4] = experiment: TR-FRET, 4 nM product peptide plus 36 nM masked substrate biotin-…-OH (carboxypeptidase B pair); data not shown
Biotin-…-OH [5] = experiment: TR-FRET, 4 nM product peptide plus 36 nM masked substrate biotin-…pSAV-OH; optimal [Eu3+]GST-PDZ 0.3 nM and [XL665]SA 3.1 nM
[6] = target: Porcine carboxypeptidase B (porcine) (UniProt P09955); experiment: cell-based or functional assay

Compound: CC1(C(=O)O)C2CCC(O2)C1(C)C(=O)O (stereo not shown) [Cantharidic Acid, cantharidic acid]
- IC50 [1]: 56 nM

Compound: C=C1[C@@H](O)[C@@H]2O[C@]3(CC[C@H](/C=C/[C@@H](C)[C@@H]4CC(C)=C[C@@]5(O[C@H](C[C@@](C)(O)C(=O)O)CC[C@H]5O)O4)O3)CC[C@H]2O[C@@H]1[C@@H](O)C[C@H](C)[C@H]1O[C@@]2(CCCCO2)CC[C@H]1C [Okadaic Acid, okadaic acid]
- IC50 [1]: 0.015 nM

Compound: PCI: potato carboxypeptidase inhibitor from Sigma; the abbreviation list calls it protein carboxypeptidase inhibitor (QQHADPICNKPCKTHDDCSGAWFCQACWNSARTCGPYVG)
- IC50 [2]: 10 nM

- signal-to-background (Biotin-…-OH [3]): > 10 fold
- signal-to-background (Biotin-…-OH [4]): > 10 fold
- signal-to-background (Biotin-…-OH [5]): > 10 fold
Compound: [Eu3+]GST-PDZ (GST fused to PDZ module 3 of PSD-95, labeled with Eu3+ chelate ITC) (from UniProt P31016 300-402)

- IC50 (inhibition of CPB hydrolysis of biotin-…-OH, TR-FRET read-out) [6]: 10 nM
Compound: potato carboxypeptidase inhibitor (from UniProt P01075 1-39)
